Assay results from patent US20180263259A1.

Biological target: ground chicken feathers (keratin)

Soluble dry matter yield (%): 48.3%
Substance: FoodPro® PXT (enzyme)
